± gives the uncertainty stated by the source.
B1: Friend leukemia integration 1 transcription factor, residues 116 to 197; numbered along this chain, Q01543 (parent)
chain: NMTTNERRVIVPADPTLWTQEHVRQWLEWAIKEYSLMEIDTSFFQNMDGKELCKMNKEDFLRATTLYNTEVLLSHLSYLRES

Variants of: B1
Experiment: abundance fitness (aPCA) (normalised: wild type 0, dead -1); higher = more abundant; growth selection in yeast, the domain comes from the species named
Conditions: Homo sapiens

Variant	abundance fitness
NMTTNERRVIVPADPTLWTQEHVRQWLEWAIKEYSLMEIDTSFFRNMDGKELCKMNKEDFLRATTLYNTEVLLSHLSYLRES [Q45R]	0.091 ± 0.049
NMTTNERRVIVPADPTLWTQEHVRQWLEWAIKEYSLMEIDTSFFDNMDGKELCKMNKEDFLRATTLYNTEVLLSHLSYLRES [Q45D]	-0.295 ± 0.18
NMTTNERRVIVPADPTLWTQEHVRQWLEWAIKEYSLMEIDTSFFPNMDGKELCKMNKEDFLRATTLYNTEVLLSHLSYLRES [Q45P]	-0.381 ± 0.1
NMTTNERRVIVPADPTLWTQEHVRQWLEWAIKEYSLMEIDTSFFVNMDGKELCKMNKEDFLRATTLYNTEVLLSHLSYLRES [Q45V]	0.062 ± 0.057
NMTTNERRVIVPADPTLWTQEHVRQWLEWAIKEYSLMEIDTSFFKNMDGKELCKMNKEDFLRATTLYNTEVLLSHLSYLRES [Q45K]	-0.048 ± 0.096
NMTTNERRVIVPADPTLWTQEHVRQWLEWAIKEYSLMEIDTSFFWNMDGKELCKMNKEDFLRATTLYNTEVLLSHLSYLRES [Q45W]	0.056 ± 0.065
NMTTNERRVIVPADPTLWTQEHVRQWLEWAIKEYSLMEIDTSFFANMDGKELCKMNKEDFLRATTLYNTEVLLSHLSYLRES [Q45A]	0.028 ± 0.067
NMTTNERRVIVPADPTLWTQEHVRQWLEWAIKEYSLMEIDTSFFLNMDGKELCKMNKEDFLRATTLYNTEVLLSHLSYLRES [Q45L]	-0.009 ± 0.049
NMTTNERRVIVPADPTLWTQEHVRQWLEWAIKEYSLMEIDTSFFGNMDGKELCKMNKEDFLRATTLYNTEVLLSHLSYLRES [Q45G]	-0.04 ± 0.07
NMTTNERRVIVPADPTLWTQEHVRQWLEWAIKEYSLMEIDTSFFTNMDGKELCKMNKEDFLRATTLYNTEVLLSHLSYLRES [Q45T]	-0.068 ± 0.08
NMTTNERRVIVPADPTLWTQEHVRQWLEWAIKEYSLMEIDTSFFMNMDGKELCKMNKEDFLRATTLYNTEVLLSHLSYLRES [Q45M]	0.026 ± 0.074
NMTTNERRVIVPADPTLWTQEHVRQWLEWAIKEYSLMEIDTSFFSNMDGKELCKMNKEDFLRATTLYNTEVLLSHLSYLRES [Q45S]	-0.003 ± 0.084
NMTTNERRVIVPADPTLWTQEHVRQWLEWAIKEYSLMEIDTSFFQCMDGKELCKMNKEDFLRATTLYNTEVLLSHLSYLRES [N46C]	-0.153 ± 0.11
NMTTNERRVIVPADPTLWTQEHVRQWLEWAIKEYSLMEIDTSFFQWMDGKELCKMNKEDFLRATTLYNTEVLLSHLSYLRES [N46W]	-0.114 ± 0.092
NMTTNERRVIVPADPTLWTQEHVRQWLEWAIKEYSLMEIDTSFFQAMDGKELCKMNKEDFLRATTLYNTEVLLSHLSYLRES [N46A]	-0.077 ± 0.33
NMTTNERRVIVPADPTLWTQEHVRQWLEWAIKEYSLMEIDTSFFQKMDGKELCKMNKEDFLRATTLYNTEVLLSHLSYLRES [N46K]	0.033 ± 0.14
NMTTNERRVIVPADPTLWTQEHVRQWLEWAIKEYSLMEIDTSFFQHMDGKELCKMNKEDFLRATTLYNTEVLLSHLSYLRES [N46H]	0.297 ± 0.25

Variant	abundance fitness
NMTTNERRVIVPADPTLWTQEHVRQWLEWAIKEYSLMEIDTSFFQIMDGKELCKMNKEDFLRATTLYNTEVLLSHLSYLRES [N46I]	-0.397 ± 0.13
NMTTNERRVIVPADPTLWTQEHVRQWLEWAIKEYSLMEIDTSFFQRMDGKELCKMNKEDFLRATTLYNTEVLLSHLSYLRES [N46R]	0.066 ± 0.064
NMTTNERRVIVPADPTLWTQEHVRQWLEWAIKEYSLMEIDTSFFQLMDGKELCKMNKEDFLRATTLYNTEVLLSHLSYLRES [N46L]	-0.175 ± 0.085
NMTTNERRVIVPADPTLWTQEHVRQWLEWAIKEYSLMEIDTSFFQMMDGKELCKMNKEDFLRATTLYNTEVLLSHLSYLRES [N46M]	-0.135 ± 0.073
NMTTNERRVIVPADPTLWTQEHVRQWLEWAIKEYSLMEIDTSFFQFMDGKELCKMNKEDFLRATTLYNTEVLLSHLSYLRES [N46F]	0.045 ± 0.14
NMTTNERRVIVPADPTLWTQEHVRQWLEWAIKEYSLMEIDTSFFQVMDGKELCKMNKEDFLRATTLYNTEVLLSHLSYLRES [N46V]	-0.34 ± 0.23
NMTTNERRVIVPADPTLWTQEHVRQWLEWAIKEYSLMEIDTSFFQPMDGKELCKMNKEDFLRATTLYNTEVLLSHLSYLRES [N46P]	-0.205 ± 0.099
NMTTNERRVIVPADPTLWTQEHVRQWLEWAIKEYSLMEIDTSFFQYMDGKELCKMNKEDFLRATTLYNTEVLLSHLSYLRES [N46Y]	-0.09 ± 0.12
NMTTNERRVIVPADPTLWTQEHVRQWLEWAIKEYSLMEIDTSFFQGMDGKELCKMNKEDFLRATTLYNTEVLLSHLSYLRES [N46G]	-0.089 ± 0.24
NMTTNERRVIVPADPTLWTQEHVRQWLEWAIKEYSLMEIDTSFFQTMDGKELCKMNKEDFLRATTLYNTEVLLSHLSYLRES [N46T]	0.071 ± 0.099
NMTTNERRVIVPADPTLWTQEHVRQWLEWAIKEYSLMEIDTSFFQSMDGKELCKMNKEDFLRATTLYNTEVLLSHLSYLRES [N46S]	-0.087 ± 0.097
NMTTNERRVIVPADPTLWTQEHVRQWLEWAIKEYSLMEIDTSFFQNMHGKELCKMNKEDFLRATTLYNTEVLLSHLSYLRES [D48H]	-0.366 ± 0.23
NMTTNERRVIVPADPTLWTQEHVRQWLEWAIKEYSLMEIDTSFFQNMIGKELCKMNKEDFLRATTLYNTEVLLSHLSYLRES [D48I]	-0.391 ± 0.27
NMTTNERRVIVPADPTLWTQEHVRQWLEWAIKEYSLMEIDTSFFQNMCGKELCKMNKEDFLRATTLYNTEVLLSHLSYLRES [D48C]	-0.388 ± 0.17
NMTTNERRVIVPADPTLWTQEHVRQWLEWAIKEYSLMEIDTSFFQNMGGKELCKMNKEDFLRATTLYNTEVLLSHLSYLRES [D48G]	-0.114 ± 0.094
NMTTNERRVIVPADPTLWTQEHVRQWLEWAIKEYSLMEIDTSFFQNMAGKELCKMNKEDFLRATTLYNTEVLLSHLSYLRES [D48A]	-0.118 ± 0.084
NMTTNERRVIVPADPTLWTQEHVRQWLEWAIKEYSLMEIDTSFFQNMEGKELCKMNKEDFLRATTLYNTEVLLSHLSYLRES [D48E]	-0.222 ± 0.11

Source: the Human Domainome abundance scans (Beltran et al. 2025)
